Results taken from patent publication US20140087995A1 (published 2014).
Numbered stars: 1 amine (or outer) side, 2 acyl side, 3 side chain; on linkers, the order of the positions; unused ones are H or OH. Bridge positions count the residues as written; N and C are the ends. Side chains are listed from the residue outwards. Ends that are not written are not given here. * marks the point of attachment. C20 diacid = O=C(O)CCCCCCCCCCCCCCCCCCC(=O)*; γGlu = O=C(O)[C@H](CCC(=O)[*:2])N[*:1]; AEEA = NCCOCCOCC(=O)O

T1: human calcitonin receptor (human, UniProt P30988 25-474)
T1 sequence (looked up): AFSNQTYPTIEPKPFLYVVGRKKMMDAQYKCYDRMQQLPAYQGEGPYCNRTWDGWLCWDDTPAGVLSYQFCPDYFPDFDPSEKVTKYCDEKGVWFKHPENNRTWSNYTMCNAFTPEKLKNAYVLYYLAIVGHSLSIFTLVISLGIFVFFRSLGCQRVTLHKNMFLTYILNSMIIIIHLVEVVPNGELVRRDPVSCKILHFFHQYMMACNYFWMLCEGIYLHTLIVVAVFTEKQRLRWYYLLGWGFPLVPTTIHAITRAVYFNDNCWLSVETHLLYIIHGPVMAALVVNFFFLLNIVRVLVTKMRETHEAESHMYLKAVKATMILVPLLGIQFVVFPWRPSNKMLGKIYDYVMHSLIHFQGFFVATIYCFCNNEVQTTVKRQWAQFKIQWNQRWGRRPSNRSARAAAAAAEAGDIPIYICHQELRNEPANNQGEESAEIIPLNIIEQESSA

T2: human amylin receptor (amylin 3(a) receptor: human calcitonin receptor plus RAMP-3) (human, UniProt P30988 25-474; O60896 24-148, limits assumed)
T2 sequence (looked up) 1: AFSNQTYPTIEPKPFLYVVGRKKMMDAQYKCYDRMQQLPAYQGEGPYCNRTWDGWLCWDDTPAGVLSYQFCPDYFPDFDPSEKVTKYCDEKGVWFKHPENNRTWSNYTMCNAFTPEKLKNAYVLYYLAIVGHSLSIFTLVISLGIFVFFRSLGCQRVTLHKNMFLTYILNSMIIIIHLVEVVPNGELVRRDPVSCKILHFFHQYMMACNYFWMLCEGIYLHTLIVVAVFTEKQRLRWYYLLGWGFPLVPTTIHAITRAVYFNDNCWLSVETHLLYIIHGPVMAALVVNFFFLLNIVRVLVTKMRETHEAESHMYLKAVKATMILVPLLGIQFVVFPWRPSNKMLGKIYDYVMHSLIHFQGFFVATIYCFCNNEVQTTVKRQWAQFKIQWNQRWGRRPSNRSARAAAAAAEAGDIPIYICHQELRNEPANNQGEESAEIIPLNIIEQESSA
T2 sequence (looked up) 2: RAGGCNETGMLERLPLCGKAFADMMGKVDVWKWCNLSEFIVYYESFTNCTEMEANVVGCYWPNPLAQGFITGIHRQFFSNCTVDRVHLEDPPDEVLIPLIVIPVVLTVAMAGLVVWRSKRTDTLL

T3: rat amylin receptor (rat calcitonin receptor + rat RAMP 3) (rat, UniProt P32214 25-516; Q9JJ73 23-147)
T3 construct: whole, on cells; Membranes of BHK tk'ts 13 cells transiently transfected with the rat calcitonin receptor and rat RAMP 3; also called rAmylin-R; rat amylin 3(a) receptor
T3 sequence (looked up) 1: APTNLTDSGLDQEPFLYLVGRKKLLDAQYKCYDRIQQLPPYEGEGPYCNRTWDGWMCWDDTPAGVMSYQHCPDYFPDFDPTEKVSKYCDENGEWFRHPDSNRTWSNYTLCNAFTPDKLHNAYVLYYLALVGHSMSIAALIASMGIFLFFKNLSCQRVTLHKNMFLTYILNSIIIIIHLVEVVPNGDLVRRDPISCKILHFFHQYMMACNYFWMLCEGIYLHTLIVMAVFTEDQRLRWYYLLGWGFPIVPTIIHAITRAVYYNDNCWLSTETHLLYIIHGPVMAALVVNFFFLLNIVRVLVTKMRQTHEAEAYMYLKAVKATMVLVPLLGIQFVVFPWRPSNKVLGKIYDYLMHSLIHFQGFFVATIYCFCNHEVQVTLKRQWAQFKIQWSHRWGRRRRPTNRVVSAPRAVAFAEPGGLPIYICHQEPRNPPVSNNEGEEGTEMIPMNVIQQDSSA
T3 sequence (looked up) 2: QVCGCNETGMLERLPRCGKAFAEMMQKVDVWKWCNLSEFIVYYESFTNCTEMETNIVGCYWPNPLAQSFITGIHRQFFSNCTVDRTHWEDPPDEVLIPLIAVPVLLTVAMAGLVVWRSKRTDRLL

T4: rat calcitonin receptor (rat, UniProt P32214 25-516)
T4 construct: whole, on cells; Membranes of BHK tk'ts 13 cells transiently transfected with the rat calcitonin receptor; also called rCTR; rat calcitonin (a) receptor
T4 sequence (looked up): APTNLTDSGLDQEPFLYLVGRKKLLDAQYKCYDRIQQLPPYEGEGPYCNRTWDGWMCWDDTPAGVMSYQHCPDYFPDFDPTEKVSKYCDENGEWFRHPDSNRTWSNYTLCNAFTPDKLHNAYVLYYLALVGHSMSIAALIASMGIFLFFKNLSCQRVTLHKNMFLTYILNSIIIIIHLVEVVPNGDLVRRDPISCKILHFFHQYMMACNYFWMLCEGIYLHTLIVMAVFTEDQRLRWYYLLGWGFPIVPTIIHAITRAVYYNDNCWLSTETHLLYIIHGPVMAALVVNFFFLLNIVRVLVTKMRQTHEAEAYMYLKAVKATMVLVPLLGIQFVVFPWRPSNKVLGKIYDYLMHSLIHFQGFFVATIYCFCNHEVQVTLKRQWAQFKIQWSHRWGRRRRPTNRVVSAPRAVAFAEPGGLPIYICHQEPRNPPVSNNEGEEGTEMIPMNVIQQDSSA

B1: N^-1-[(4S)-4-carboxy-4-(19-carboxynonadecanoylamino)butanoyl]-Gly[Arg1,Arg17,Pro21,Pro27]-h-amylin (peptide)
peptide: {C20 diacid-γGlu}-GRCNTATCATQRLANFLRHSSPNFGAIPSSTNVGSNTY-NH2
modifications: disulfide 3-8
SMILES: CC[C@H](C)[C@H](NC(=O)[C@H](C)NC(=O)CNC(=O)[C@H](Cc1ccccc1)NC(=O)[C@H](CC(N)=O)NC(=O)[C@@H]1CCCN1C(=O)[C@H](CO)NC(=O)[C@H](CO)NC(=O)[C@H](Cc1c[nH]cn1)NC(=O)[C@H](CCCNC(=N)N)NC(=O)[C@H](CC(C)C)NC(=O)[C@H](Cc1ccccc1)NC(=O)[C@H](CC(N)=O)NC(=O)[C@H](C)NC(=O)[C@H](CC(C)C)NC(=O)[C@H](CCCNC(=N)N)NC(=O)[C@H](CCC(N)=O)NC(=O)[C@@H](NC(=O)[C@H](C)NC(=O)[C@@H]1CSSC[C@H](NC(=O)[C@H](CCCNC(=N)N)NC(=O)CNC(=O)CC[C@H](NC(=O)CCCCCCCCCCCCCCCCCCC(=O)O)C(=O)O)C(=O)N[C@@H](CC(N)=O)C(=O)N[C@@H]([C@@H](C)O)C(=O)N[C@@H](C)C(=O)N[C@@H]([C@@H](C)O)C(=O)N1)[C@@H](C)O)C(=O)N1CCC[C@H]1C(=O)N[C@@H](CO)C(=O)N[C@@H](CO)C(=O)N[C@H](C(=O)N[C@@H](CC(N)=O)C(=O)N[C@H](C(=O)NCC(=O)N[C@@H](CO)C(=O)N[C@@H](CC(N)=O)C(=O)N[C@H](C(=O)N[C@@H](Cc1ccc(O)cc1)C(N)=O)[C@@H](C)O)C(C)C)[C@@H](C)O
notes: also called compound 46
B2: N^ε1-[2-[2-[2-[[(4S)-4-carboxy-4-(19-carboxynonadecanoylamino)butanoyl]amino]ethoxy]ethoxy]acetyl]-[Arg17,Pro21,Pro27,Arg35]-h-amylin (peptide)
peptide: K([AEEA-γGlu-C20 diacid])CNTATCATQRLANFLRHSSPNFGAIPSSTNVGSRTY-NH2
modifications: disulfide 2-7; N-terminus assumed
SMILES: CC[C@H](C)[C@H](NC(=O)[C@H](C)NC(=O)CNC(=O)[C@H](Cc1ccccc1)NC(=O)[C@H](CC(N)=O)NC(=O)[C@@H]1CCCN1C(=O)[C@H](CO)NC(=O)[C@H](CO)NC(=O)[C@H](Cc1c[nH]cn1)NC(=O)[C@H](CCCNC(=N)N)NC(=O)[C@H](CC(C)C)NC(=O)[C@H](Cc1ccccc1)NC(=O)[C@H](CC(N)=O)NC(=O)[C@H](C)NC(=O)[C@H](CC(C)C)NC(=O)[C@H](CCCNC(=N)N)NC(=O)[C@H](CCC(N)=O)NC(=O)[C@@H](NC(=O)[C@H](C)NC(=O)[C@@H]1CSSC[C@H](NC(=O)[C@@H](N)CCCCNC(=O)COCCOCCNC(=O)CC[C@H](NC(=O)CCCCCCCCCCCCCCCCCCC(=O)O)C(=O)O)C(=O)N[C@@H](CC(N)=O)C(=O)N[C@@H]([C@@H](C)O)C(=O)N[C@@H](C)C(=O)N[C@@H]([C@@H](C)O)C(=O)N1)[C@@H](C)O)C(=O)N1CCC[C@H]1C(=O)N[C@@H](CO)C(=O)N[C@@H](CO)C(=O)N[C@H](C(=O)N[C@@H](CC(N)=O)C(=O)N[C@H](C(=O)NCC(=O)N[C@@H](CO)C(=O)N[C@@H](CCCNC(=N)N)C(=O)N[C@H](C(=O)N[C@@H](Cc1ccc(O)cc1)C(N)=O)[C@@H](C)O)C(C)C)[C@@H](C)O
notes: modifications are with respect to human amylin; also called compound 38
B3: N^ε-[2-[2-[2-[[(4S)-4-carboxy-4-(19-carboxynonadecanoylamino)butanoyl]amino]ethoxy]ethoxy]acetyl]Lys[Arg1,Arg17,Pro21,Pro27,His35]-h-amylin (peptide)
peptide: K([AEEA-γGlu-C20 diacid])RCNTATCATQRLANFLRHSSPNFGAIPSSTNVGSHTY-NH2
modifications: disulfide 3-8; N-terminus assumed
SMILES: CC[C@H](C)[C@H](NC(=O)[C@H](C)NC(=O)CNC(=O)[C@H](Cc1ccccc1)NC(=O)[C@H](CC(N)=O)NC(=O)[C@@H]1CCCN1C(=O)[C@H](CO)NC(=O)[C@H](CO)NC(=O)[C@H](Cc1c[nH]cn1)NC(=O)[C@H](CCCNC(=N)N)NC(=O)[C@H](CC(C)C)NC(=O)[C@H](Cc1ccccc1)NC(=O)[C@H](CC(N)=O)NC(=O)[C@H](C)NC(=O)[C@H](CC(C)C)NC(=O)[C@H](CCCNC(=N)N)NC(=O)[C@H](CCC(N)=O)NC(=O)[C@@H](NC(=O)[C@H](C)NC(=O)[C@@H]1CSSC[C@H](NC(=O)[C@H](CCCNC(=N)N)NC(=O)[C@@H](N)CCCCNC(=O)COCCOCCNC(=O)CC[C@H](NC(=O)CCCCCCCCCCCCCCCCCCC(=O)O)C(=O)O)C(=O)N[C@@H](CC(N)=O)C(=O)N[C@@H]([C@@H](C)O)C(=O)N[C@@H](C)C(=O)N[C@@H]([C@@H](C)O)C(=O)N1)[C@@H](C)O)C(=O)N1CCC[C@H]1C(=O)N[C@@H](CO)C(=O)N[C@@H](CO)C(=O)N[C@H](C(=O)N[C@@H](CC(N)=O)C(=O)N[C@H](C(=O)NCC(=O)N[C@@H](CO)C(=O)N[C@@H](Cc1c[nH]cn1)C(=O)N[C@H](C(=O)N[C@@H](Cc1ccc(O)cc1)C(N)=O)[C@@H](C)O)C(C)C)[C@@H](C)O
notes: also called compound 45

Tests used:
[1] = target: T1, human calcitonin receptor; test: cell-based or functional assay
[2] = target: T2, human amylin receptor (amylin 3(a) …); test: cell-based or functional assay
[3] = target: T3, rat amylin receptor (rat calcitonin …); test: SPA competition vs 125I-rat amylin, membranes with rat CTR + rat RAMP3 (Assay VI)
Protocol: The binding assay was performed using scintillation proximity assay (SPA) beads (RPNQ0001) from PerkinElmer and cell membranes from the Amylin 3(a)/CRE-luc cells (as described in Assay (II)) were used. Membranes were prepared in the following way; the cells were rinsed with PBS and incubated with Versene for approximately 5 min before harvesting. The cells were flushed with PBS and the cell-suspension was centrifuged for 5 min at 1000 rpm. Cells were homogenized (ultrathurrax) in a buffer containing 20 mM Na-HEPES and 10 mM EDTA (pH 7.4) and centrifuged at 20.000 rpm for 15 min. The resulting pellet was resuspended, homogenized and centrifuged (20.000 rpm, 15 min) in a buffer containing 20 mM Na-HEPES and 0.1 mM EDTA (pH 7.4, buffer 2). The resulting pellet was resuspended in buffer 2 and protein concentration was measured (BCA protein Assay, Pierce). The homogenate was kept cold during the whole procedure. The membranes were kept at −80° C. until use. The assay was performed in a 384 well Optiplate (PerkinElmer) in a total volume of 40 ul. Membranes were mixed with SPA beads. Final concentration of membranes 35 ng/μL final and SPA beads was 0.05 mg/well. Test-compounds were dissolved in DMSO and further diluted in assay buffer (50 mM Hepes, pH 7.4, 1 mM CaCl2, 5 mM MgCl₂, 0.1% OA and 0.02% Tween20). […] The final mixture was incubated with shaking at 400 rpm for 120 min at 25° C. prior to centrifugation (1500 rpm, 10 min). Samples were analyzed on TopCounter™ (Packard). The IC₅₀ was calculated using (one site binding competition analysis) GraphPad Prism5 as a measure of receptor affinity.
Cells were grown in DMEM with 10% FBS and 1% Pen/Strep. Approximately 48 hours after transfection, the cells were harvested and membranes were prepared.

[4] = target: T4, rat calcitonin receptor; test: SPA competition vs 125I-calcitonin, membranes with rat CTR (Assay VIII)

Binder	Ratio hCT/hAmylin funct. (hCTR EC50 against hAmylin-R EC50) [1]	hCTR funct. EC50 [1]	hAmylin-R funct. EC50 [2]	IC50 [3]	IC50 [4]
B1	10.2	0.899 nM	0.088 nM	–	–
B2	–	–	–	0.383 nM	38 nM
B3	17	10.1 nM	0.594 nM	–	–
